Columns and labels:
[1] = biological target: T1, DEAD-box protein 5 (Dbp5), full length (Saccharomyces cerevisiae, UniProt P20449 1-482); experiment: stopped-flow fluorescence
T1 sequence (looked up): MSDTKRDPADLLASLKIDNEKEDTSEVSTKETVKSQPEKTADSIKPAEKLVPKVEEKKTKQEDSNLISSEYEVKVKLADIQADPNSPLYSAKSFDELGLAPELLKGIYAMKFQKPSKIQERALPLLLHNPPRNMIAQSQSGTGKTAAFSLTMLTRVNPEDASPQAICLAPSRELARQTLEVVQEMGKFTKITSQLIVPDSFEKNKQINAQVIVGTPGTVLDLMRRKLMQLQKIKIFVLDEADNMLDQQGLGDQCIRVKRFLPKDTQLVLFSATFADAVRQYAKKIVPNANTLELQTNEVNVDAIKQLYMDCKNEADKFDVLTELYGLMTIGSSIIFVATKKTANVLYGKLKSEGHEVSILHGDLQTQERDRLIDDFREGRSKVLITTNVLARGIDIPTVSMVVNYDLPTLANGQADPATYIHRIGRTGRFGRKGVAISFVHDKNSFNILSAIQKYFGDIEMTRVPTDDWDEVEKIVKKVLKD

[2] = biological target: T1, DEAD-box protein 5 (Dbp5), full length; experiment: detailed balance of Scheme 1 from measured equilibrium constants
[3] = biological target: T1, DEAD-box protein 5 (Dbp5), full length; experiment: detailed balance of Scheme 3 from measured equilibrium constants
[4] = biological target: T1, DEAD-box protein 5 (Dbp5), full length; experiment: as above; remark: listed apart in the source
[5] = biological target: T1, DEAD-box protein 5 (Dbp5), full length; experiment: as above; remark: listed apart in the source

Kd [1]: 170 ± 150 nM
Kd [2]: 800 ± 300 nM
Kd [3]: 600 ± 200 nM
Kd [4]: 1.5 ± 0.8 nM
Kd [5]: 500 ± 200 nM
B1: Gle1 (a.a. 244–538), soluble truncated (domain or fragment, Saccharomyces cerevisiae, UniProt Q12315 244-538, looked up)
chain: TNFDKISKMFWHYKDKIAQIKQDIVLPIKKADVNVRNLLSRHKRKINPKFGQLTNSNQQLFKIQNELTQLINDTKGDSLAYHWILNFIAKAVVHQAETEVRVKPESALPLGKLTLYLLVQFPELQELFMARLVKKCPFVIGFTCEIDTEKGRQNMGWKRNNENKWEDNTSYDERMGGILSLFAIITRLQLPQEFITTTSHPFPIALSWHILARICNTPLNLITNTHFVILGSWWDAAAVQFLQAYGNQASKLLILIGEELTSRMAEKKYVGAARLRILLEAWQNNNMESFPEMSP
